Test results published in US20230416363A1 (KADMON, published 2023).

How the values were obtained:
[1] = biological target: T1, human PD-1 expressed on cells (human, UniProt Q15116 25-288); assay: flow cytometry, activated PBMC donor FA
T1 construct: whole, on cells

[2] = biological target: T1, human PD-1 expressed on cells; assay: cell-based or functional assay
[3] = biological target: T1, human PD-1 expressed on cells; assay: cell-based or functional assay; remark: listed apart in the source
[4] = biological target: T1, human PD-1 expressed on cells; assay: flow cytometry, SEB-activated PBMC donor two
[5] = biological target: T2, hPD-1-Fc (human, UniProt Q15116 25-167); assay: blocking ELISA, PD-1 to PD-L1
T2 construct: domain: IgV domain; also called human PD-1-Fc; not shown: human IgG1 Fc
T2 sequence (Q15116 25-167 limits assumed): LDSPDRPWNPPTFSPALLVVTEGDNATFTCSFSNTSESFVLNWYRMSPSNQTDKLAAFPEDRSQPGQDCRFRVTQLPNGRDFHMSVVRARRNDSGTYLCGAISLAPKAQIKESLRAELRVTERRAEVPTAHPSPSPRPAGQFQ

[6] = biological target: T1, human PD-1 expressed on cells; assay: flow cytometry, hPD1-293 cells
[7] = biological target: T3, hPD-1-his (human, UniProt Q15116 25-167); assay: SPR, Exp. 4
T3 construct: domain: IgV domain; monomer in solution; biotin-labelled where captured by streptavidin; also called biotin-hPD-1-his
T3 sequence (Q15116 other isoform, or with tags, fused parts or gaps limits assumed): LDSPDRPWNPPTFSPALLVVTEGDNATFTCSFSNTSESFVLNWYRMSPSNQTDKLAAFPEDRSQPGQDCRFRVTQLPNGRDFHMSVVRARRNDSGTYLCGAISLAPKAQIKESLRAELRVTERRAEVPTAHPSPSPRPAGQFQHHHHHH

[8] = biological target: T1, human PD-1 expressed on cells; assay: cell-based or functional assay; remark: listed apart in the source
[9] = biological target: T2, hPD-1-Fc; assay: SPR, Exp. 3
[10] = biological target: T3, hPD-1-his; assay: SPR, Exp. 3
[11] = biological target: T2, hPD-1-Fc; assay: blocking ELISA, PD-1 to PD-L2
[12] = biological target: T1, human PD-1 expressed on cells; assay: cell-based or functional assay; remark: listed apart in the source
[13] = biological target: T2, hPD-1-Fc; assay: SPR, range over experiments
[14] = biological target: T1, human PD-1 expressed on cells; assay: flow cytometry, hPD1-Jurkat cells
[15] = biological target: T2, hPD-1-Fc; assay: SPR, Exp. 1
[16] = biological target: T3, hPD-1-his; assay: SPR, Exp. 1
[17] = biological target: T2, hPD-1-Fc; assay: SPR, Exp. 2
[18] = biological target: T3, hPD-1-his; assay: SPR, Exp. 2
[19] = biological target: T3, hPD-1-his; assay: ELISA, PD-1-his on streptavidin
[20] = biological target: T3, hPD-1-his; assay: ELISA, PD-1-his on anti-his
[21] = biological target: T3, hPD-1-his; assay: SPR Biacore T200, PD-1-his immobilised
[22] = biological target: T1, human PD-1 expressed on cells; assay: flow cytometry, hPD-1-Jurkat cells
[23] = biological target: T2, hPD-1-Fc; assay: ELISA, PD-1-Fc coated
[24] = biological target: T1, human PD-1 expressed on cells; assay: flow cytometry, hPD1-Jurkat cells; remark: listed apart in the source
[25] = biological target: T3, hPD-1-his; assay: ELISA, biotin-PD-1-his on streptavidin
[26] = biological target: T1, human PD-1 expressed on cells; assay: flow cytometry, hPD-1-293 cells
[27] = biological target: T1, human PD-1 expressed on cells; assay: flow cytometry, activated PBMC donor two
[28] = biological target: T4, hPD1 (soluble, ELISA of Example 20) (human, UniProt Q15116 25-167, limits assumed); assay: ELISA, hPD1
T4 sequence (Q15116 25-167 limits assumed): as the sequence (Q15116 25-167 limits assumed) above

[29] = biological target: T1, human PD-1 expressed on cells; assay: flow cytometry, hPD1-293 cells; remark: listed apart in the source
[30] = biological target: T5, mPD1 (soluble, ELISA of Examples 20 and 24) (mouse, UniProt Q02242 25-167, limits assumed); assay: ELISA, mPD1
T5 construct: also called Biotin-mPD1
T5 sequence (looked up): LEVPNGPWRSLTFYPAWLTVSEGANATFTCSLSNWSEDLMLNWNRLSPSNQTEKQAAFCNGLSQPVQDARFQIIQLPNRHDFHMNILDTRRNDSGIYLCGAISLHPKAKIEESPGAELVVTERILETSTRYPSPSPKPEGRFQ

[31] = biological target: T2, hPD-1-Fc; assay: SPR Biacore, hPD1-Fc
[32] = biological target: T2, hPD-1-Fc; assay: SPR Biacore T200, PD-1-Fc immobilised
[33] = biological target: T6, mPD-1-Fc (mouse; human, UniProt Q02242 25-167, limits assumed); assay: SPR Biacore
T6 construct: domain: IgV domain; not shown: human IgG1 Fc
T6 sequence (looked up): T5 sequence (looked up)

[34] = biological target: T7, mPD-1-his (mouse, UniProt Q02242 25-167, limits assumed); assay: SPR Biacore
T7 construct: domain: IgV domain
T7 sequence: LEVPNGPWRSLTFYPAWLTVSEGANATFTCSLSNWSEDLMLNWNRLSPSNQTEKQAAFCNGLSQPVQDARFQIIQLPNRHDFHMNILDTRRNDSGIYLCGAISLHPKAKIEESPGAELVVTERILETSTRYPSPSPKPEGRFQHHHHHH

[35] = biological target: T2, hPD-1-Fc; assay: blocking ELISA, hPD-1 to hPD-L1; design: unit not given here
[36] = biological target: T2, hPD-1-Fc; assay: ELISA, hPD-1-Fc coated
[37] = biological target: T1, human PD-1 expressed on cells; assay: flow cytometry, SEB-activated PBMC donor
[38] = biological target: T3, hPD-1-his; assay: ELISA, PD-1-his on anti-his; remark: listed apart in the source
[39] = biological target: T4, hPD1 (soluble, ELISA of Example 20); assay: blocking ELISA, hPD1 to hPDL1

T1 sequence (Q15116 25-288): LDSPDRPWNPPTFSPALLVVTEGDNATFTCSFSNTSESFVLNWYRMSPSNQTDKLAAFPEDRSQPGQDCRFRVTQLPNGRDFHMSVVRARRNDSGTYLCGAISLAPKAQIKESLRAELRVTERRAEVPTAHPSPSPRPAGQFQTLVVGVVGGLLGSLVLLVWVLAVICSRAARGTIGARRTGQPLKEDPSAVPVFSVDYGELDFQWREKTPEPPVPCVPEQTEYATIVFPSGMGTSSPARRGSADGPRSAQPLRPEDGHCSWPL

B1: 38B2 (antibody, V domains shown)
VH: EVQLLESGGGLVQPGGSLRLSCAASGFTFSSYWMSWVRQAPGKGLEWVSAISGSGGSTYYADSVKGRFTISRDNSKNTLYLQMNSLRAEDTAVYYCASSPLQWVDVWGQGTTVTVSS
VL: DIQMTQSPSSLSASVGDRVTITCRASESISSWLAWYQQKPGKAPKLLIYDASSLESGVPSRFSGSGSGTDFTLTISSLQPEDFATYYCQQGDSFPFTFGQGTKLEIK
notes: 24H9 derivative, IgG; also called 780_54; hPD1 Ab (38B2)
EC50 [1]: 150 pM
MFI at 25 nM [1]: 16.6 MFI
EC50, Promega blockade bioassay [2]: 0.154 µg/mL
Fold induction [2]: 6.54 fold
EC50, Promega blockade bioassay, Exp. 1 [3]: 0.189 µg/mL
EC50, Promega blockade bioassay, Exp. 2 [3]: 0.135 µg/mL
Fold induction at 12 µg/ml, Exp. 1 [3]: 7.61 fold
Fold induction at 12 µg/ml, Exp. 2 [3]: 8.31 fold
MFI, 5 nM [4]: 55.3 MFI
IC50 [5]: 2370 pM
Inhibition % at 50 nM [5]: 93.9%
Inhibition, % at 5.56 nM [5]: 92.7%
EC50 [6]: 120 pM
MFI at 5 nM [6]: 118 MFI
Kd [7]: 205 pM
EC50 averaged from two experiments, Promega blockade bioassay [8]: 0.154 µg/mL
IC50, Promega blockade bioassay [8]: 725 pM
Kd [9]: < 10 pM
Kd [10]: 932 pM
IC50 [11]: 1930 pM
Inhibition, % at 3.7 nM [11]: 93.9%
Inhibition, % at 100 nM [11]: 95.1%
EC50 (read off the curve) [12]: ~500 pM
Kd [13]: 10 to 30 pM
EC50 [14]: 137 pM
Kd [15]: < 33 pM
Kd [16]: 946 pM
Kd [17]: < 10 pM
Kd [18]: 423 pM
OD at 10 nM [19]: 1.04 OD
EC50 [20]: 60 pM
Kd [21]: 318 pM
MFI, 5 nM [22]: 60.8 MFI
EC50 [23]: 96 pM
EC50 [24]: 160 pM
MFI at 5 nM [24]: 91 MFI
EC50 [25]: 81 pM
MFI, 5 nM [26]: 297 MFI
EC50 [27]: 100 pM
MFI at 25 nM [27]: 16.7 MFI
EC50 [28]: 125 pM
EC50 [29]: 267 pM
binding result [30]: no binding
Kd [31]: 147 pM
koff [31]: 3.26e-05 s⁻¹
kon [31]: 221000 M⁻¹ s⁻¹
Kd [32]: 249 pM
binding result [33]: no binding
binding result [34]: no binding
Inhibition at 50 nM [35]: 93.4
OD at 10 nM [36]: 1.05 OD
MFI, 5 nM [37]: 64.2 MFI
OD at 10 nM [38]: 0.662 OD
IC50 [39]: 4250 pM
